One experiment concerns the target Human tau (human, UniProt P10636 1-441). Nature of the experiment: direct binding ELISA.
For another experiment, the target named is Human alpha-synuclein (human, UniProt P37840 1-140). Put plainly: direct binding ELISA.

Chain of Human tau (P10636 other isoform, or with tags, fused parts or gaps): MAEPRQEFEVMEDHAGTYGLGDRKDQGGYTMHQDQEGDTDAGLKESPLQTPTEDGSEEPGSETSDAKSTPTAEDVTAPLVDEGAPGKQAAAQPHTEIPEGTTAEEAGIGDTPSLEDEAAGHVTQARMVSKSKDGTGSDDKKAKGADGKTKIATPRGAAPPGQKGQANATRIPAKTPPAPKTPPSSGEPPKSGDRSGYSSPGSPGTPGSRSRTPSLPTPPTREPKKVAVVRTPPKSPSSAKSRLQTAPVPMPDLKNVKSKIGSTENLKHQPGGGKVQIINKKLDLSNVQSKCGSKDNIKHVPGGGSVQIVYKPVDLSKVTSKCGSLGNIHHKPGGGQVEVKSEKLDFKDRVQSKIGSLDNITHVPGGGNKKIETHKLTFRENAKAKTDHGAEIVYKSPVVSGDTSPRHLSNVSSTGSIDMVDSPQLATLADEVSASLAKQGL

B1: 6C5 hIgG1 (antibody, V domains shown)
VH: QVQLVESGGGVVQPGRSLRVSCAASGFTFSSYDMHWVRQAPGKGLEWVAVIWFDGSNEFYADSVKGRFTISRDNSKNTLFLQMNSLRAEDTAVYYCARDLGASVTTSNAENFHHWGQGTLVTVSS
VL: SYELTQPPSVSVSPGQTARITCSGDALPKRYVYWYQQKSGQAPVLVIYEDSKRPSGIPETFSGSSSGTMATLTISGAQVEDEADYYCYSTDSNGHHWVFGGGTKLTVLG
With B1, the half-maximal effective concentration (EC50) with Human tau amounted to 520 pM.

B2: FC5-H62(T33C/A104C)-G4S-6C5 hIgG1 (HC) (bispecific antibody)
heavy: not shown
light: SYELTQPPSVSVSPGQTARITCSGDALPKRYVYWYQQKSGQAPVLVIYEDSKRPSGIPETFSGSSSGTMATLTISGAQVEDEADYYCYSTDSNGHHWVFGGGTKLTVLGQPKAAPSVTLFPPSSEELQANKATLVCLISDFYPGAVTVAWKADSSPVKAGVETTTPSKQSNNKYAASSYLSLTPEQWKSHRSYSCQVTHEGSTVEKTVAPTECS
In the experiment with Human tau, B2 showed an EC50 of 740 pM.

B3: FC5-H62(T33C/A104C)-G4S-6C5 (LC) (bispecific antibody)
heavy: not shown
light: DVQLVESGGGLVQPGGSLRLSCAASGFKITHYCTGWFRQAPGKEREFVSRITWGGDNTFYSNSVKGRFTISRDNSKNTVYLQMNSLRAEDTAVYYCAAGSTSTCTPLRVDYWGQGTLVTVSSGGGGSSYELTQPPSVSVSPGQTARITCSGDALPKRYVYWYQQKSGQAPVLVIYEDSKRPSGIPETFSGSSSGTMATLTISGAQVEDEADYYCYSTDSNGHHWVFGGGTKLTVLGQPKAAPSVTLFPPSSEELQANKATLVCLISDFYPGAVTVAWKADSSPVKAGVETTTPSKQSNNKYAASSYLSLTPEQWKSHRSYSCQVTHEGSTVEKTVAPTECS
Turning to B3, in the experiment with Human tau, the midpoint of the response, the EC50, lay at 980 pM.

B4: 12F4 hIgG1 (antibody, V domains shown)
VH: EVQLVESGGGLVEPGGSLRLSCAVSGFDFEKAWMSWVRQAPGQGLQWVARIKSTADGGTTSYAAPVEGRFIISRDDSRNMLYLQMNSLKTEDTAVYYCTSAHWGQGTLVTVSS
VL: SYELTQPPSVSVSPGQTARITCSGEALPMQFAHWYQQRPGKAPVIVVYKDSERPSGVPERFSGSSSGTTATLTITGVQAEDEADYYCQSPDSTNTYEVFGGGTKLTVLS
In the case of B4, in the experiment with Human alpha-synuclein, the EC50 turned out to be 2700 pM.

The EC50 is the concentration needed to bring the measured effect to its halfway point. Read a low EC50 as a more potent agent.

The values above are taken from US20220089704A1 (published 2022).
